Assay results reported in the DeepSol protein solubility set.

Experiment: soluble on expression in E. coli; label from the status in PepcDB or PDB records

Sequence | soluble on expression in E. coli
MGSDKIHHHHHHMYQPISIVNIYYQGFGDKRLIGKLTMDGRRPTFGYDAAWLADGLELSPIEMPLRSAPYYGSHASSHYLCGLLSDSLPDGWGMLLMDRFFRRTISNTAPVNILDRLAYIGDSAMGALSFEPQHDLSANVIDMSELTLAKLAAANQTILSGQDSDILAELIVIGGSPQGARPKALVLYDESSDFITTDTASKNPSATSWLIKFPAQSEHKSVCLLEALYADMAKKAGLNMPMHHYFDIDSEYAAFGVERFDRMGNQRVHIHTLAGLLDIDFRIPSLDYLQYLRCVRMLTQSQLAVESAFKHAVFNVIFNNKDDHSKNFSFMMNEAGSWSLSPVYDLAYNSGMNGYHQMDVAGEARYPTLSHLLKLAKLADIKQNKAQAIIDQVASVAEDFLTVINDHDIEKELSNRVIQDIKANINRMVS | not soluble
SASAVFEGTSLVNMFVRGCWVNGIRRLIVSRRGDEEEFFEIRTEWSDRSVLYLHRSFADLGRLCKRLRDAFPEDRSELARTPLRQGLLAIKGAHDIETRLNEVEKLLETVISMPCKYSRSEVVLTFFERSPLDQVLKNDNVHKIQPSFQSPVKISEAKEGTGALRTGVVDGCEPPGGCWELSVGLLEEHQVFLTAERIFSPRKAFLRNHEVQWILFGKHRDHSH | soluble
MGSDKIHHHHHHMLPNRLLANRAYSTAINRFRVVEVGARDGLQAEKKFVPTEIKVELIDRLSECGFQTVETTSFVSPKWVPQLADHNEIVKKHRRFEGVSYPVLVPNAAGLKNALATGVVEEIAVFGAASDAFSLKNVNSNVEDSLKKLMEVTKIALENNIRVRGYVSVVVGCPYQGAVQPEMVARVAEKLLESGCYEVSLGDTIGVGTVKTVSKMLDTVLKSVPAEKLAVHFHDTYGQALANVLISIEKGIRSADSSIAGLGGCPYAKGATGNLATEDLLYFLKGNGFETGVNLDKVVETAKWFNEAAGYDKWSRVGAAMMAKKSKSCC | not soluble
MIDMTMKVGFIGLGIMGKPMSKNLLKAGYSLVVADRNPEAIADVIAAGAETASTAKAIAEQCDVIITMLPNSPHVKEVALGENGIIEGAKPGTVLIDMSSIAPLASREISEALKAKGIDMLDAPVSGGEPKAIDGTLSVMVGGDKAIFDKYYDLMKAMAGSVVHTGEIGAGNVTKLANQVIVALNIAAMSEALTLATKAGVNPDLVYQAIRGGLAGSTVLDAKAPMVMDRNFKPGFRIDLHIKDLANALDTSHGVGAQLPLTAAVMEMMQALRADGLGTADHSALACYYEKLAKVEVTR | not soluble
MGSDKIHHHHHHMTLLIVGATGTLGRQVARRAIDEGYKVRCLVRSSKKAAFLKEWGAELVPGNLRYPDTLAAALVGVTQVIDASTSRPTDSLSIKQVDWEGKVALIQAAKAAGVERFIFFSILDADKYPEVPLMEIKRCTELFLAESGLNYTILRLAGFMQGLIGQYGIPILEGQPVWVTGNSSPIAYMDTQDIAKFAIRALSVPETENQAFPVVGTRAWSAEEIINLCERLSGKDARVTRMPISLLRAVRGLMRSFQWGWNVADRLAFTEVLASGKQLNASMDEVYTVFGLDPQQTTTLESYLQEYFSRIMKKLKEVDYQKNKNKKQKPKKTPFKQSSKANSQ | not soluble
AITGIFFGSDTGNTENIAKMIQKQLGKDVADVHDIAKSSKEDLEAYDILLLGIPTWYYGEAQCDWDDFFPTLEEIDFNGKLVALFGCGDQEDYAEYFCDALGTIRDIIEPRGATIVGHWPTAGYHFEASKGLADDDHFVGLAIDEDRQPELTAERVEKWVKQISEELHLDEILNA | soluble
MYKRYVAQIIFALTILISAPSWAETEETGPKLAYFTLEPDLTTNFYTKGKKLGYVQVRIDIMVMSQQDLAIVEHHQPLIRDAVIELLGKQTEDTIKSLSGREDLRKTLVKELNETLLPETGKTVIADLLFTKYLYQ | not soluble
MDDSQESSFSVSKYETNDDGSMGQFISINECEREIQMLERDIRQQKESSANAKTAITFDQLRKIHTLSTLLGPHKELFFDRICRAADIQRASLKNRLKSNINKFEPSTPLSFQPGFDSQSSLSTTSESQNFVVTPTTLSSLLNNHTRKNHIEMLAPLASEEELMRFPAERQFDLMQIGFSYDEVKQLLEMFEKFKNDVQEINRLHTLTQILNQFCNYISMYAPPNLKMISSAFNLLELGNSAHEVKRVLLKARRREESEESDVSFSKKPRPSSRSPASPNRDDLLLGLDRSPPSDDGTQKV | not soluble
GSLRPLSEVNQHSQLMAQLVEVIEDSFQMKVNKESVNYLRLIRHIRFTIERIKKEEPTKEPEKLMLLLKNEYPLCYNTAWKLIKILQQTLKKPVHEAEAVYLTLHLIPINQ | soluble
MGSDKIHHHHHHMKNNLNNILEDSLNYKIGETLDELKSIKKLDEIFSKRKDQLYREKDEGKKVYGRFCVFVPTEIICAADAIPVGLCGGKESTIPSAEEDLPRNICPLIKSSYGFKKDKACPYFEASDVIVGETTCDGKKKMFEHMAELSEMYVMHLPHFKDERSYELWLKEVYDFKDYVEKFTGNKITEEKLKEAIDEENEERMLSHKLYELRSQIPTPITGKDALKIFQRSFLLDIKDRLAILKEVISELEERVKNGEGYTGKRILVAGCPMVAGNTKIVDIIEEVGGLVVGEETCTGTRKFDNLVNGYTIDDLAERYFKINCASAFKNDSRIERIKELVKEQNADGVVYYTLQYCHTFNVEGALIEKELKNLGIPIIRIETDYSESDKEQIKTRLEAFVEMI | not soluble
MKLLDHKLSLLEITDEEKSDEIILNLSRNVKKDLEDIVVANVSMENVLVMNIKVPPTLNKQNAVEYATMEISRNLGILPEQLVVAPLDIRGGEGLFFVSKVDQVKSFVTDLMKKEFPETDVVIPDIVKYLEVFEFYFGKRLKGTS | soluble
KLVIAIVQDKDANYLSDQFIDQNVRATKLSTTGGFLQSGNTTFMIGIEEERVPEVLEIIKKASHTREEFMTPSVNMDVNMEGTTAYPIKVQVGGATVLVLPVDQFERF | not soluble
MGHHHHHHSHMGDPEYLATFRIVVMPIAREFSPDLVLVSAGFDAAEGHPAPLGGYHVSAKCFGYMTQQLMNLAGGAVVLALEGGHDLTAICDASEACVAALLGNRVDPLSEEGWKQKPNLNAIRSLEAVIRVHSKYWGCMQRLASCPDSWVPRVPGADKEEVEAVTALASLSVGILAEDRPSEQLVEEEEPMNL | not soluble
MQQALLDHLRVVTEEEQRILDGVAEVDKDLYTSGKDFTVDSAKMLSEGKLIAVRTHTRFVHFPSHRHNYIEVLYVCQGQLTNIIGGKEVVIHAGELLFLNQYTRHEILPAGEEDIAINFMILPEFFDVAYTMAGNNNVLADFLVNVLRQDEERGEYLHFKVAEVLQIQNLLENMIYSLVTGKGDQNRINQTTMGLIFLYLLESVQYAEMRLPNQYENMIIMTTLDYIEQQYKTATLTELCEKLHLPMHMLSKMIRKNTGFNFKELLQRKRLNKAVELMCETDLPISDIIAAVGYENGSYFHRVFKERYHTTPRAFRVANGKEERVRL | not soluble
MLKFRTVHGGLRLLGIRRTSTAPAASPNVRRLEYKPIKKVMVANRGEIAIRVFRACTELGIRTVAIYSEQDTGQMHRQKADEAYLIGRGLAPVQAYLHIPDIIKVAKENNVDAVHPGYGFLSERADFAQACQDAGVRFIGPSPEVVRKMGDKVEARAIAIAAGVPVVPGTDAPITSLHEAHEFSNTYGFPIIFKAAYGGGGRGMRVVHSYEELEENYTRAYSEALAAFGNGALFVEKFIEKPRHIEVQILGDQYGNILHLYERDCSIQRRHQKVVEIAPAAHLDPQLRTRLTSDSVKLAKQVGYENAGTVEFLVDRHGKHYFIEVNSRLQVEHTVTEEITDVDLVHAQIHVSEGRSLPDLGLRQENIRINGCAIQCRVTTEDPARSFQPDTGRIEVFRSGEGMGIRLDNASAFQGAVISPHYDSLLVKVIAHGKDHPTAATKMSRALAEFRVRGVKTNIAFLQNVLNNQQFLAGTVDTQFIDENPELFQLRPAQNRAQKLLHYLGHVMVNGPTTPIPVKASPSPTDPVVPAVPIGPPPAGFRDILLREGPEGFARAVRNHPGLLLMDTTFRDAHQSLLATRVRTHDLKKIAPYVAHNFSKLFSMENWGGATFDVAMRFLYECPWRRLQELRELIPNIPFQMLLRGANAVGYTNYPDNVVFKFCEVAKENGMDVFRVFDSLNYLPNMLLGMEAAGSAGGVVEAAISYTGDVADPSRTKYSLQYYMGLAEELVRAGTHILCIKDMAGLLKPTACTMLVSSLRDRFPDLPLHIHTHDTSGAGVAAMLACAQAGADVVDVAADSMSGMTSQPSMGALVACTRGTPLDTEVPMERVFDYSEYWEGARGLYAAFDCTATMKSGNSDVYENEIPGGQYTNLHFQAHSMGLGSKFKEVKKAYVEANQMLGDLIKVTPSSKIVGDLAQFMVQNGLSRAEAEAQAEELSFPRSVVEFLQGYIGVPHGGFPEPFRSKVLKDLPRVEGRPGASLPPLDLQALEKELVDRHGEEVTPEDVLSAAMYPDVFAHFKDFTATFGPLDSLNTRLFLQGPKIAEEFEVELERGKTLHIKALAVSDLNRAGQRQVFFELNGQLRSILVKDTQAMKEMHFHPKALKDVKGQIGAPMPGKVIDIKVVAGAKVAKGQPLCVLSAMKMETVVTSPMEGTVRKVHVTKDMTLEGDDLILEIE | not soluble
MGHHHHHHSHMDLDSGDVKRRVHLFETQRRTKEEDPIIPFSDGPIISKWGAISRSSRTGYHTTDPVQATASQGSATKPISVSDYVPYVNAVDSRWSSYGNEATSSAHYVERDRFIVTDLSGHRKHSSTGDLLSLELQQAKSNSLLLQREANALAMQQKWNSLDEGRHLTLNLLSKEIELRNGEVKKLNLSASCLMYLFSAAASWLYHY | not soluble
MALQLGRLSSGPCWLVARGGCGGPRAWSQCGGGGLRAWSQRSAAGRVCRPPGPAGTEQSRGLGHGSTSRGGPWVGTGLAAALAGLVGLATAAFGHVQRAEMLPKTSGTRATSLGRPEEEEDELAHRCSSFMAPPVTDLGELRRRPGDMKTKMELLILETQAQVCQALAQVDGGANFSVDRWERKEGGGGISCVLQDGCVFEKAGVSISVVHGNLSEEAAKQMRSRGKVLKTKDGKLPFCAMGVSSVIHPKNPHAPTIHFNYRYFEVEEADGNKQWWFGGGCDLTPTYLNQEDAVHFHRTLKEACDQHGPDLYPKFKKWCDDYFFIAHRGERRGIGGIFFDDLDSPSKEEVFRFVQSCARAVVPSYIPLVKKHCDDSFTPQEKLWQQLRRGRYVEFNLLYDRGTKFGLFTPGSRIESILMSLPLTARWEYMHSPSENSKEAEILEVLRHPRDWVR | not soluble
MSLSVPAAAPEDSVISAEETTTGSAVTNVQFSNEQVITENGKYKVSKLAPSLSFLPSNVELCCSVDAKSGYALCCDTDNVYVWPFLSSETHPSFVRIPLHDEEYESWSRPPLCCFTWPSVLERDLKSSPGLFLVNSRSGDIQFYEDVDTVSQVASFLTQTKRHKSVLKLRDGEYVENLINAEPAGILLSTNYGRVEFCTIRDANGKPFVSLKQTIIKCQVGIFSSMSKSKRVVSLKLGEISGKGERIVSILTQGGRYQVWNLSSVGNCYKKIDLNVQSEISQAVLEHFPLATSTLKLLDCHPLSGDSDAYLFLSFLAESNETHYLLSTIIVDEDTNSFAIFSTYRLNTYTRPLSDEFAPRLIVPTAYTKEHLPITSVYTLFSDAAVLTQTSSKLDSNYPFKRKWEDIIRFNKDMKVLGYDCNSSSLYITDGRTCALKLETFEKYENSDFQEIRFIKSHVDQYVYFGGQSTDEGHHHHHH | soluble
MKLSQLGFFCAVVERGTIAAAAEQLHCVPSNITTRLRELEGQLGVALFNRERNRLLVTPEGRLLYRHATRLLALADETAALFAGDQAHGALRVGALDVALANHLPQRLARYRRESPGVELHIRPEHSLLLERLLMEGELDLIVTDGPIEHPLLASRLAFRERLLRVTPADLPAPTPEDLAGLELYVFGHTCHYRRQVDRWLAESAIQPRATLEIESYPSLFACIEAGLGFACVPESFVARRPSTRRGFHAEPVAGLDSSDIHFVWRKQQASPLIQGFIDSIGAD | not soluble
